Measured values taken from PMC4860839, “Structures of the APC–ARM domain in complexes with discrete Amer1/WTX fragments reveal that it uses a consensus mode to recognize its binding partners” (Cell Discovery, 2015).

B1: pBTM-APC–ARM (residues 308–789), two-hybrid bait [human] / Amer1-A4 (human, residues 337–455), two-hybrid prey [human] (parent complex)
chain 1: LGTKVEMVYSLLSMLGTHDKDDMSRTLLAMSSSQDSCISMRQSGCLPLLIQLLHGNDKDSVLLGNSRGSKEARARASAALHNIIHSQPDDKRGRREIRVLHLLEQIRAYCETCWEWQEAHEPGMDQDKNPMPAPVEHQICPAVCVLMKLSFDEEHRHAMNELGGLQAIAELLQVDCEMYGLTNDHYSITLRRYAGMALTNLTFGDVANKATLCSMKGCMRALVAQLKSESEDLQQVIASVLRNLSWRADVNSKKTLREVGSVKALMECALEVKKESTLKSVLSALWNLSAHCTENKADICAVDGALAFLVGTLTYRSQTNTLAIIESGGGILRNVSSLIATNEDHRQILRENNCLQTLLQHLKSHSLTIVSNACGTLWNLSARNPKDQEALWDMGAVSMLKNLIHSKHKMIAMGSAAALRNLMANRPAKYKDANIMSPGSSLPSLHVRKQKALEAELDAQHLSETFDNIDNLSPKASHRSKQ
chain 2: MDSMTDSMASGGQRANRDGTKRSSCLVTYQGGGEEMALPDDDDEEEEEEEEVELEEEEEEVKEEEEDDDLEYLWETAQMYPRPNMNLGYHPTTSPGHHGYMLLDPVRSYPGLAPGELLT
B2: pBTM-APC–ARM (residues 308–789), two-hybrid bait [human] / Amer1-A1 (murine, residues 279–367), two-hybrid prey [murine] (parent complex)
chain 1: B1 chain 1
chain 2: SLEEPHTSETEGKVVAGEVNPPNGPVGDQLSLLFGDVTSLKSFDSLTGCGDIIAEQDMDSMTDSMASGGQRANRDGTKRSSCLVTYQGG

Variants of: B1
Test: yeast two-hybrid assay (relative β-galactosidase reporter activity); parent: 100

percent of parent [%]	Variant
28.1	chain 1 LGTKVEMVYSLLSMLGTHDKDDMSRTLLAMSSSQDSCISMRQSGCLPLLIQLLHGNDKDSVLLGNSRGSKEARARASAALHNIIHSQPDDKRGRREIRVLHLLEQIRAYCETCWEWQEAHEPGMDQDKNPMPAPVEHQICPAVCVLMKLSFDEEHRHAMNELGGLQAIAELLQVDCEMYGLTNDHYSITLRRYAGMALTNLTFGDVANKATLCSMKGCMRALVAQLKSESEDLQQVIASVLRNLSWRADVNSKKTLREVGSVKALMECALEVKKESTLKSVLSALWNLSAHCTENKADICAVDGALAFLVGTLTYRSQTNTLAIIESGGGILRNVSSLIATNEDHRQILRENNCLQTLLQHLKSHSLTIVSNACGTLWNLSARNPKDQEALWDMGAVSMLKNLIHSKHKKIAMGSAAALRNLMANRPAKYKDANIMSPGSSLPSLHVRKQKALEAELDAQHLSETFDNIDNLSPKASHRSKQ [chain 1 M410K]
0.28	chain 1 LGTKVEMVYSLLSMLGTHDKDDMSRTLLAMSSSQDSCISMRQSGCLPLLIQLLHGNDKDSVLLGNSRGSKEARARASAALHNIIHSQPDDKRGRREIRVLHLLEQIRAYCETCWEWQEAHEPGMDQDKNPMPAPVEHQICPAVCVLMKLSFDEEHRHAMNELGGLQAIAELLQVDCEMYGLTNDHYSITLRRYAGMALTNLTFGDVANKATLCSMKGCMRALVAQLKSESEDLQQVIASVLRKLSWRADVNSKKTLREVGSVKALMECALEVKKESTLKSVLSALWNLSAHCTENKADICAVDGALAFLVGTLTYRSQTNTLAIIESGGGILRNVSSLIATNEDHRQILRENNCLQTLLQHLKSHSLTIVSNACGTLWNLSARNPKDQEALWDMGAVSMLKNLIHSKHKMIAMGSAAALRNLMANRPAKYKDANIMSPGSSLPSLHVRKQKALEAELDAQHLSETFDNIDNLSPKASHRSKQ [chain 1 N243K]
3.93	chain 1 LGTKVEMVYSLLSMLGTHDKDDMSRTLLAMSSSQDSCISMRQSGCLPLLIQLLHGNDKDSVLLGNSRGSKEARARASAALHNIIHSQPDDKRGRREIRVLHLLEQIRAYCETCWEWQEAHEPGMDQDKNPMPAPVEHQICPAVCVLMKLSFDEEHRHAMNELGGLQAIAELLQVDCEMYGLTNDHYSITLRRYAGMALTNLTFGDVANEATLCSMKGCMRALVAQLKSESEDLQQVIASVLRNLSWRADVNSKKTLREVGSVKALMECALEVKKESTLKSVLSALWNLSAHCTENKADICAVDGALAFLVGTLTYRSQTNTLAIIESGGGILRNVSSLIATNEDHRQILRENNCLQTLLQHLKSHSLTIVSNACGTLWNLSARNPKDQEALWDMGAVSMLKNLIHSKHKMIAMGSAAALRNLMANRPAKYKDANIMSPGSSLPSLHVRKQKALEAELDAQHLSETFDNIDNLSPKASHRSKQ [chain 1 K209E]
132	chain 1 LGTKVEMVYSLLSMLGTHDKDDMSRTLLAMSSSQDSCISMRQSGCLPLLIQLLHGNDKDSVLLGNSRGSKEARARASAALHNIIHSQPDDKRGRREIRVLHLLEQIRAYCETCWEWQEAHEPGMDQDKNPMPAPVEHQICPAVCVLMKLSFDEEHRHAMNELGGLQAIAELLQVDCEMYGLTNDHYSITLRRYAGMALTNLTFGDVANKATLCSMKGCMRALVAQLKSESEDLQQVIASVLRNLSWRADVNSKKTLREVGSVKALMECALEVKKESTLKSVLSALWNLSAHCTENKADICAVDGALAFLVGTLTYRSQTNTLAIIESGGGILRNVSSLIATNEDHRQILRENNCLQTLLQHLKSHSLTIVSNACGTLWNLSARNPKDQEALWDMGAVSMLKNLIHSKHKMIAMGSAAALENLMANRPAKYKDANIMSPGSSLPSLHVRKQKALEAELDAQHLSETFDNIDNLSPKASHRSKQ [chain 1 R420E]
0.28	chain 1 LGTKVEMVYSLLSMLGTHDKDDMSRTLLAMSSSQDSCISMRQSGCLPLLIQLLHGNDKDSVLLGNSRGSKEARARASAALHNIIHSQPDDKRGRREIRVLHLLEQIRAYCETCWEWQEAHEPGMDQDKNPMPAPVEHQICPAVCVLMKLSFDEEHRHAMNELGGLQAIAELLQVDCEMYGLTNDHYSITLRRYAGMALTKLTFGDVANKATLCSMKGCMRALVAQLKSESEDLQQVIASVLRNLSWRADVNSKKTLREVGSVKALMECALEVKKESTLKSVLSALWNLSAHCTENKADICAVDGALAFLVGTLTYRSQTNTLAIIESGGGILRNVSSLIATNEDHRQILRENNCLQTLLQHLKSHSLTIVSNACGTLWNLSARNPKDQEALWDMGAVSMLKNLIHSKHKMIAMGSAAALRNLMANRPAKYKDANIMSPGSSLPSLHVRKQKALEAELDAQHLSETFDNIDNLSPKASHRSKQ [chain 1 N200K]
0.84	chain 1 LGTKVEMVYSLLSMLGTHDKDDMSRTLLAMSSSQDSCISMRQSGCLPLLIQLLHGNDKDSVLLGNSRGSKEARARASAALHNIIHSQPDDKRGRREIRVLHLLEQIRAYCETCWEWQEAHEPGMDQDKNPMPAPVEHQICPAVCVLMKLSFDEEHRHAMNELGGLQAIAELLQVDCEMYGLTNDHYSITLRRYAGMALTNLTFGDVANKATLCSMKGCMRALVAQLKSESEDLQQVIASVLENLSWRADVNSKKTLREVGSVKALMECALEVKKESTLKSVLSALWNLSAHCTENKADICAVDGALAFLVGTLTYRSQTNTLAIIESGGGILRNVSSLIATNEDHRQILRENNCLQTLLQHLKSHSLTIVSNACGTLWNLSARNPKDQEALWDMGAVSMLKNLIHSKHKMIAMGSAAALRNLMANRPAKYKDANIMSPGSSLPSLHVRKQKALEAELDAQHLSETFDNIDNLSPKASHRSKQ [chain 1 R242E]

Variants of: B2
Test: as above

percent of parent [%]	Variant
0.09	chain 1 LGTKVEMVYSLLSMLGTHDKDDMSRTLLAMSSSQDSCISMRQSGCLPLLIQLLHGNDKDSVLLGNSRGSKEARARASAALHNIIHSQPDDKRGRREIRVLHLLEQIRAYCETCWEWQEAHEPGMDQDKNPMPAPVEHQICPAVCVLMKLSFDEEHRHAMNELGGLQAIAELLQVDCEMYGLTNDHYSITLRRYAGMALTNLTFGDVANEATLCSMKGCMRALVAQLKSESEDLQQVIASVLRNLSWRADVNSKKTLREVGSVKALMECALEVKKESTLKSVLSALWNLSAHCTENKADICAVDGALAFLVGTLTYRSQTNTLAIIESGGGILRNVSSLIATNEDHRQILRENNCLQTLLQHLKSHSLTIVSNACGTLWNLSARNPKDQEALWDMGAVSMLKNLIHSKHKMIAMGSAAALRNLMANRPAKYKDANIMSPGSSLPSLHVRKQKALEAELDAQHLSETFDNIDNLSPKASHRSKQ [chain 1 K209E]
33.7	chain 1 LGTKVEMVYSLLSMLGTHDKDDMSRTLLAMSSSQDSCISMRQSGCLPLLIQLLHGNDKDSVLLGNSRGSKEARARASAALHNIIHSQPDDKRGRREIRVLHLLEQIRAYCETCWEWQEAHEPGMDQDKNPMPAPVEHQICPAVCVLMKLSFDEEHRHAMNELGGLQAIAELLQVDCEMYGLTNDHYSITLRRYAGMALTNLTFGDVANKATLCSMKGCMRALVAQLKSESEDLQQVIASVLRNLSWRADVNSKKTLREVGSVKALMECALEVKKESTLKSVLSALWNLSAHCTENKADICAVDGALAFLVGTLTYRSQTNTLAIIESGGGILRNVSSLIATNEDHRQILRENNCLQTLLQHLKSHSLTIVSNACGTLWNLSARNPKDQEALWDMGAVSMLKNLIHSKHKKIAMGSAAALRNLMANRPAKYKDANIMSPGSSLPSLHVRKQKALEAELDAQHLSETFDNIDNLSPKASHRSKQ [chain 1 M410K]
1.48	chain 1 LGTKVEMVYSLLSMLGTHDKDDMSRTLLAMSSSQDSCISMRQSGCLPLLIQLLHGNDKDSVLLGNSRGSKEARARASAALHNIIHSQPDDKRGRREIRVLHLLEQIRAYCETCWEWQEAHEPGMDQDKNPMPAPVEHQICPAVCVLMKLSFDEEHRHAMNELGGLQAIAELLQVDCEMYGLTNDHYSITLRRYAGMALTNLTFGDVANKATLCSMKGCMRALVAQLKSESEDLQQVIASVLENLSWRADVNSKKTLREVGSVKALMECALEVKKESTLKSVLSALWNLSAHCTENKADICAVDGALAFLVGTLTYRSQTNTLAIIESGGGILRNVSSLIATNEDHRQILRENNCLQTLLQHLKSHSLTIVSNACGTLWNLSARNPKDQEALWDMGAVSMLKNLIHSKHKMIAMGSAAALRNLMANRPAKYKDANIMSPGSSLPSLHVRKQKALEAELDAQHLSETFDNIDNLSPKASHRSKQ [chain 1 R242E]
41.3	chain 1 LGTKVEMVYSLLSMLGTHDKDDMSRTLLAMSSSQDSCISMRQSGCLPLLIQLLHGNDKDSVLLGNSRGSKEARARASAALHNIIHSQPDDKRGRREIRVLHLLEQIRAYCETCWEWQEAHEPGMDQDKNPMPAPVEHQICPAVCVLMKLSFDEEHRHAMNELGGLQAIAELLQVDCEMYGLTNDHYSITLRRYAGMALTNLTFGDVANKATLCSMKGCMRALVAQLKSESEDLQQVIASVLRNLSWRADVNSKKTLREVGSVKALMECALEVKKESTLKSVLSALWNLSAHCTENKADICAVDGALAFLVGTLTYRSQTNTLAIIESGGGILRNVSSLIATNEDHRQILRENNCLQTLLQHLKSHSLTIVSNACGTLWNLSARNPKDQEALWDMGAVSMLKNLIHSKHKMIAMGSAAALENLMANRPAKYKDANIMSPGSSLPSLHVRKQKALEAELDAQHLSETFDNIDNLSPKASHRSKQ [chain 1 R420E]
0.38	chain 1 LGTKVEMVYSLLSMLGTHDKDDMSRTLLAMSSSQDSCISMRQSGCLPLLIQLLHGNDKDSVLLGNSRGSKEARARASAALHNIIHSQPDDKRGRREIRVLHLLEQIRAYCETCWEWQEAHEPGMDQDKNPMPAPVEHQICPAVCVLMKLSFDEEHRHAMNELGGLQAIAELLQVDCEMYGLTNDHYSITLRRYAGMALTNLTFGDVANKATLCSMKGCMRALVAQLKSESEDLQQVIASVLRKLSWRADVNSKKTLREVGSVKALMECALEVKKESTLKSVLSALWNLSAHCTENKADICAVDGALAFLVGTLTYRSQTNTLAIIESGGGILRNVSSLIATNEDHRQILRENNCLQTLLQHLKSHSLTIVSNACGTLWNLSARNPKDQEALWDMGAVSMLKNLIHSKHKMIAMGSAAALRNLMANRPAKYKDANIMSPGSSLPSLHVRKQKALEAELDAQHLSETFDNIDNLSPKASHRSKQ [chain 1 N243K]
1.86	chain 1 LGTKVEMVYSLLSMLGTHDKDDMSRTLLAMSSSQDSCISMRQSGCLPLLIQLLHGNDKDSVLLGNSRGSKEARARASAALHNIIHSQPDDKRGRREIRVLHLLEQIRAYCETCWEWQEAHEPGMDQDKNPMPAPVEHQICPAVCVLMKLSFDEEHRHAMNELGGLQAIAELLQVDCEMYGLTNDHYSITLRRYAGMALTKLTFGDVANKATLCSMKGCMRALVAQLKSESEDLQQVIASVLRNLSWRADVNSKKTLREVGSVKALMECALEVKKESTLKSVLSALWNLSAHCTENKADICAVDGALAFLVGTLTYRSQTNTLAIIESGGGILRNVSSLIATNEDHRQILRENNCLQTLLQHLKSHSLTIVSNACGTLWNLSARNPKDQEALWDMGAVSMLKNLIHSKHKMIAMGSAAALRNLMANRPAKYKDANIMSPGSSLPSLHVRKQKALEAELDAQHLSETFDNIDNLSPKASHRSKQ [chain 1 N200K]
